The results in this text go back to patent US20230192845A1 (BLINK BIOMEDICAL, published 2023).

The target in experiment [1] is T1, human CD96 short isoform v2 expressed on CHO cells (human, UniProt P40200 22-585).
T1 construct: also called hCD96v2; CD96v2; not shown: C-terminal HA-tag
T1 sequence: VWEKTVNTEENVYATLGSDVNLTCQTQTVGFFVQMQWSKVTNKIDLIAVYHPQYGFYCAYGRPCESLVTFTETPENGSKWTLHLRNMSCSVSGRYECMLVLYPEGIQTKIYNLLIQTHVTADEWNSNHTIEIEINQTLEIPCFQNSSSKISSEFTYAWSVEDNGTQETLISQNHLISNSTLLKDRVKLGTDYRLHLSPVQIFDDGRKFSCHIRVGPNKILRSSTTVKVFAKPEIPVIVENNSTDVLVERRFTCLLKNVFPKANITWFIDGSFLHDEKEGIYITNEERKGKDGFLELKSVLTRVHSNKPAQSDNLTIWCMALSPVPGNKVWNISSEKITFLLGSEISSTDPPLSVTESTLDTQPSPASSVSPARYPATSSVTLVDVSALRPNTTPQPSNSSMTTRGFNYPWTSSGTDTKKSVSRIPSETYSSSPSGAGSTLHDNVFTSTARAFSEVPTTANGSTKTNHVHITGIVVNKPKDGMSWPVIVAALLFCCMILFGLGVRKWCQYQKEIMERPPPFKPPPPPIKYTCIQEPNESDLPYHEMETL
Put plainly: FCM, inhibition of hCD155-Fc binding to hCD96v2-CHO cells. Here is the method:
(§1) All candidates except BL006-2-19 that bound very weakly on hCD96v2 by FCM were tested for their capacity to inhibit the binding of human CD155 to hCD96v2 stably expressed on CHO cells. Human CD96-transfected CHO cells (3×10⁵ cells/well of 96-well plate) were incubated at +4° C. for 30 minutes with serial dilutions of anti-CD96 antibodies or isotype control antibody (in mIgG2a or mIgG2aD265A format) in the presence of 4 μg/mL of biotinylated hCD155-Fc (produced and biotinylated at BliNK).
(§2) % inhibition=(1−(MFI_wAb&CD155−MFI_CHO)/(MFI_wCD155−MFI_CHO))×100, where MFI_wAb&CD155 is the Mean Intensity Fluorescence (MFI) obtained with the hCD96-CHO cells incubated with the tested antibody and hCD155-hFc; MFI_CHO is the MFI obtained in the absence of hCD155 and mAbs; and MFI_wCD155 is the fluorescence with hCD155 but without pre-incubation with antibody (0% CD155 binding inhibition). The % of inhibition was plotted against antibody concentration and the IC50 values were calculated by using a nonlinear regression analysis model of the GraphPad Prism software.

Experiment [2] addresses T2, rhesus CD96 transiently expressed on CHO cells (rhesus, UniProt P40200 22-585 (human entry)).
T2 construct: also called rhesus CD96, short isoform
T2 chain: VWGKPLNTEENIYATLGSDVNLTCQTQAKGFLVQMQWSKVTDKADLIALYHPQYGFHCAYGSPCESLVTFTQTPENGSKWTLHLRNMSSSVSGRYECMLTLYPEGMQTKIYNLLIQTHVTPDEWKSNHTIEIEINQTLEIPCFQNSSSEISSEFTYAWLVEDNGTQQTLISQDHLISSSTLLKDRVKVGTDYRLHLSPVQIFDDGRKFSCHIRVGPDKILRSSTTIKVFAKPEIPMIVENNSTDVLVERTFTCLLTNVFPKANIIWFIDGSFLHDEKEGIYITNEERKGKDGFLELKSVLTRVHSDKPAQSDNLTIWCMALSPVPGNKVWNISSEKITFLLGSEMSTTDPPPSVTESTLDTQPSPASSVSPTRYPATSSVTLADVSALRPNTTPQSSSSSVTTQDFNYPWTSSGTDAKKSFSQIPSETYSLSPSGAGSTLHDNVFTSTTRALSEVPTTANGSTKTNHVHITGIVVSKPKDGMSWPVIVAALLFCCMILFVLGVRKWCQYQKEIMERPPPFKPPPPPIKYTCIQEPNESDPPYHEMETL
Put plainly: flow cytometry on CHO cells transiently expressing rhesus CD96; antibody at 1 (thin line) and 10 µg/ml (thick dashed line), filled grey = isotype control. How it is done: FIG. 7: Binding profiles of anti-CD96 antibodies on CHO cells transfected with rhesus CD96. Anti-CD96 antibodies or the corresponding isotype control mAbs were tested for their capacity to recognize rhesus CD96 transiently expressed on CHO cells by flow cytometry. Each histogram represents the overlay of the fluorescence intensity obtained for each antibody tested at 1 (black line) and 10 μg/ml (thick dashed black line) and compared to the fluorescence obtained with an isotypic control (filled grey histogram).
(§3) The capacity of the identified mouse anti-human CD96 antibodies to recognize the CD96 protein from other species was further analyzed by flow cytometry by using CHO cells expressing the mouse or the rhesus CD96. The expression of the species-specific CD96 on CHO cell surface was confirmed by using staining with appropriate anti-CD96 antibodies and flow cytometry on non-fixed cells. The rat anti-mCD96 antibody clone #630612 (R&D Systems) and the candidate BL006-9-1 (positive by ELISA on rhesus CD96) were used to confirm the expression of rhesus CD96, while the clone 6A6 (rat IgG2a, e-Bioscience) was used to verify the expression of mouse CD96.
(§4) Mouse anti-CD96 antibodies and isotype control antibodies were incubated at 10 or 1 μg/mL with CHO cells expressing different CD96 species at +4° C. for 30 minutes.
(In general: In flow cytometry, cells or beads pass a laser one at a time.)

The target in experiment [3] is T1, human CD96 short isoform v2 expressed …. The experiment is described as follows: FCM on hCD96v2-CHO cells. Here is the method:
FIG. 6: Binding profiles of anti-hCD96 antibodies on human CD96-transfected CHO cells (hCD96v2, short isoform). CHO cells expressing hCD96v2 were incubated with serial dilution of the indicated mIgG1 or mIgG2a anti-CD96 or isotype control antibodies. […] The results are expressed as the difference of mean fluorescence intensity (delta MFI) between cells stained with antibodies and cells without antibodies. Dose response curves were obtained from GraphPad prism software using a non-linear regression fit with a variable slope model (4 parameters). To simplify the reading, results from the various anti-hCD96 candidates are shown on 4 different panels.
The capacity of the identified mouse anti-CD96 antibodies to recognize the cell membrane expressed human CD96 was further analyzed by flow cytometry (FCM) by using CHO cells stably transfected with the CD96 short isoform v2 (CD96v2; Genbank accession number NM_005816, flanked in C-terminus with HA-tag) (SEQ ID NO: 268).
Mouse anti-CD96 antibodies and isotype control antibodies were incubated at various concentrations from 10 μg/mL to 4.6 ng/mL with CHO cells expressing human CD96 at +4° C. for 30 minutes. […] The differences between the mean fluorescence intensity (MFI) obtained for each of the antibody concentration and the intensity obtained in absence of primary antibody (delta-MFI), were calculated and plotted against the concentrations of antibodies.

Experiment [4] concerns the target T3, mouse CD96 expressed on CHO cells (mouse, UniProt Q3U0X8 22-602).
T3 construct: whole, on cells; also called mCD96
T3 sequence (looked up): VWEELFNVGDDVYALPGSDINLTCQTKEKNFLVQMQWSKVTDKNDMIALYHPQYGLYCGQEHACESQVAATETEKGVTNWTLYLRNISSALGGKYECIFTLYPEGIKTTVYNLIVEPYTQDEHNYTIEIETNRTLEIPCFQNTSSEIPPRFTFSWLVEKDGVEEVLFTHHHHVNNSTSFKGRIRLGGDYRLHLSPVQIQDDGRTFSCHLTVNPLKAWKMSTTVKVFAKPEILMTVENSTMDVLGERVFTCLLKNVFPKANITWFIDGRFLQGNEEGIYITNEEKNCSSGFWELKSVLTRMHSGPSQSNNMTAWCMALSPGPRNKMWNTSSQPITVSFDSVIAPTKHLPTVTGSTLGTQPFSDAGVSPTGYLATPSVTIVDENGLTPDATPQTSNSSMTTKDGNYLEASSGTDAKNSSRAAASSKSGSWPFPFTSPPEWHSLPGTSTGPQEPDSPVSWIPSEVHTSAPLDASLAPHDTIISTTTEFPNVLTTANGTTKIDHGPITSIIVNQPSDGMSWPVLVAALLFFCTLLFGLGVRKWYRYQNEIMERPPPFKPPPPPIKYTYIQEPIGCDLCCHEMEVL
The experiment is described as follows: FCM on CHO cells expressing mouse CD96.
Description: as §3, §4

Experiment [5] has as its target T1, human CD96 short isoform v2 expressed …. The experiment is described as follows: FCM, inhibition of hCD155-Fc binding to hCD96v2-CHO cells; relative IC50. Here is the method: as §1, §2

B1: BL006-8-3G9-3K4 (antibody, V domains shown)
VH: QVQLQQSGAELVRPGASVKLSCKASGYRFTDYEMEWVKQTPVHGLEWIGAIDPETGGTAYNQKFKGKATVTADKSSRTAYMELRSLTSEDSAVYYCTREGDGSYGAYWGQGTLVTVSA
VL: DVMMTQTPLSLPVSLGDQASISCRSSQSIVYSNGNTYLEWYLQKPGQSPKLLMYKVSNRFSGVPDRFSGSGSGTDFTLKISRVEAEDLGVYYCFQGSHAPWTFGGGTKLEIK
notes: Recombinant mIgG2a/kappa (also made as mIgG2a-D265A); also called BL006-8-3G9-3K4 #6; candidate NO 4
B1: the “Maximal Inhibition Capacity (%)” value in experiment [1] was below 5%. Besides, the binding result in experiment [2] is “no binding (tested: 10 µg/ml)”. Further, in experiment [3], the EC50 (as a rule, the concentration that produces a half-maximal response) is 4.68 nM and the “Maximum binding (delta MFI)” value stood at 235000 delta MFI. Also, the binding result in experiment [4] is “no binding (tested: 1 and 10 µg/mL)”.

B2: BL006-19-14G3-14K1 (antibody, V domains shown)
VH: QVTLKESGPGILQPSQTLSLTCSFSGFSLDTFGMGVGWIRQSSGKGLEWLAHIWWDDDKFYNPALKSRLTVSKDTSKNQVFLKIANVDTADTATYYCAHYYGSLSFDVWGTGTTVTVSS
VL: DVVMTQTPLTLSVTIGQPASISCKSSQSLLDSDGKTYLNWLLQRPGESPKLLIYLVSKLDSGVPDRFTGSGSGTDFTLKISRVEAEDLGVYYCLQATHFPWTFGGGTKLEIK
notes: Recombinant mIgG2a/kappa (also made as mIgG2a-D265A); also called BL006-19-14G3-14K1 #8; candidate NO 6
With B2, the “Maximal Inhibition Capacity (%)” value in experiment [1] came to 41.4%. Moreover, the binding result in experiment [2] is given as “binds”. In experiment [3], a half-maximal response (EC50) required 3.1 nM and the “Maximum binding (delta MFI)” value is 694000 delta MFI. The IC50 (usually the concentration needed to halve the response being measured) in experiment [5] stood at 2.67 nM. For the same molecule, the binding result in experiment [4] was “no binding (tested: 1 and 10 µg/mL)”.

B3: BL006-19-29G5-29K1 (antibody, V domains shown)
VH: QVTLKESGPGILQSSQTLSLTCSFSGFSLSTFGMGVSWIRKPSGKGLEWLAHIFWDDDKRYNPSLKSRLTISKDTSSNQVFLMINSMDIADTATYYCTRGSNWFAYWGQGTLVTVSA
VL: DIVLTQSPASLAVSLGQRATISCRASESVDSYGNSFMHWYQQKPGQPPKLLIYRASNLESGIPARFSGSGSRTDFTLTINPVEADDVATYYCQQSNEDPLTFGAGTKLELK
notes: Recombinant mIgG2a/kappa (also made as mIgG2a-D265A); also called candidate NO 14
Consider B3, for which the “Maximal Inhibition Capacity (%)” value in experiment [1] came out at 43.1%. In addition, the binding result in experiment [2] was “binds”; in experiment [4], “no binding (tested: 1 and 10 µg/mL)”. Moreover, a half-maximal response in experiment [3] (EC50) required 2.98 nM. Besides, in experiment [3], the “Maximum binding (delta MFI)” value came out at 753000 delta MFI. Besides, the IC50 in experiment [5] was 5.24 nM.

B4: BL006-19-190G4-190K6 (antibody, V domains shown)
VH: EVQLVESGGGLVQPGGSLKLSCAASGFTFSNYGMSWVRQTPDKRLELVATINSNGGSTYYPDSVKGRFTISRDNAKNTLYLQMSSLKSEDTAMYYCTKRGAWYFDVWGTGTTVTVSS
VL: DIQMTQSSSSFSVSLGDRVTITCKASEDIYNRLAWYQQKPGNAPRLLISSATSLETGVSSRFSGSGSGKDYTLSITSLQTEDVATYYCQQYWTTPTWTFGGGTKLEIK
notes: Recombinant mIgG2a/kappa (also made as mIgG2a-D265A); also called candidate NO 16
Consider B4, for which, in experiment [1], the IC50 amounted to 11.5 nM and the “Maximal Inhibition Capacity (%)” value came out at 98.1%. Moreover, in experiment [2], the binding result was “no binding (tested: 10 µg/ml)”. In experiment [3], the EC50 amounted to 3.39 nM and the “Maximum binding (delta MFI)” value came out at 711000 delta MFI. Also, the binding result in experiment [4] was “no binding (tested: 1 and 10 µg/mL)”.
